The source of these data is US20200109196A1 (MOGAM INSTITUTE FOR BIOMEDICAL RESEARCH, published 2020).

The target of assay [1] is T1, recombinant CEACAM1 protein (UniProt P13688 35-428, limits assumed).
T1 sequence (looked up): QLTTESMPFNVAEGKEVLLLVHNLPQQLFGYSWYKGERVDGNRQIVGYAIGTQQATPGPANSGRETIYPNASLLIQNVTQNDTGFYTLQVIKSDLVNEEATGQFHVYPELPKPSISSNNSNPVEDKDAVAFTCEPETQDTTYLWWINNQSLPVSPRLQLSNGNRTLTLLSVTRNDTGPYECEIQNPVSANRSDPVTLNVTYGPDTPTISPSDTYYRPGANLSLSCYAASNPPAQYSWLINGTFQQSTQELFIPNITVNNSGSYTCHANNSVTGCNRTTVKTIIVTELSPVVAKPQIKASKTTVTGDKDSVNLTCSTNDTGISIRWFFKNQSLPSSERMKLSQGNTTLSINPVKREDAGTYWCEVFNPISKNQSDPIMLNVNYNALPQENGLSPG
The assay can be described thus: ELISA, coated recombinant CEACAM1, anti-human IgG-HRP detection. On the procedure:
Then, each well was washed 3 times with a washing buffer prepared by diluting 10 μl of Tween 20 (Sigma-Aldrich; Cat. No. P9146) in 990 μl of PBS.
(In general: An ELISA detects its analyte on a solid surface through an enzyme-linked reagent.)

Assay [2] has as its target T2, CEACAM6 expressed on the surface of HEK293 cells (human, UniProt P40199 35-320).
T2 construct: whole, on cells; GFP-tagged clone; also called CEACAM6-GFP
T2 sequence (looked up): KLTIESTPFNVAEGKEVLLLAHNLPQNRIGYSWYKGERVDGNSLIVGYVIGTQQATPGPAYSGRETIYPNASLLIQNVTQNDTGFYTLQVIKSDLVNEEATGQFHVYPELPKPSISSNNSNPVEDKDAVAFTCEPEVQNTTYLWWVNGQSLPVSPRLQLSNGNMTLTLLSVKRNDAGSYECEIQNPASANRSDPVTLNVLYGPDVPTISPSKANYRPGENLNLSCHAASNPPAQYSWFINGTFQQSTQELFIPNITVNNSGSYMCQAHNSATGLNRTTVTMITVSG
The assay can be described thus: flow cytometry on transfected HEK293 cells (GFP+ gate), PE goat anti-huIgG4 [a]. On the procedure:
HEK293 cells were added with 10 μg of each pEF1α-AcGFP-N1 vector (Clontech, Cat. No. 631973) as a control vector, CEACAM1, CEACAM3, CEACAM5, CEACAM6 and CEACAM8 plasmid vectors, followed by transfection under the condition of pulse voltage 1,100 V, pulse width 20 ms and pulse number 2. After 48 hours of transfection, GFP expression was confirmed by fluorescence microscopy. The cells were detached by treatment with 1 ml of TrypLE Express Solution (ThermoFisher Scientific; Cat. No. 12605010), resuspended in 9 ml of DMEM (Gibco, Cat. No. 11995-065) supplemented with 10% (v/v) FBS, and centrifuged at 1,200 rpm for 5 minutes, to remove the resulting supernatant.
After washing once with PBS, the cells were resuspended in a FACS buffer to obtain a concentration of 5×10⁵ cells/100 μl. Human Fc Block solution was added to the samples at 1 μl/sample, which were incubated at 4° C. for 10 minutes. The cells were treated with hulgG4 or one of the anti-CEACAM1 clones listed at 1 μg/5×10⁵ cells, which were incubated at 4° C. for 10 minutes. After washing with FACS buffer, the PE-labeled goat-anti-huIgG4 antibodies were diluted at a ratio of 1:200 in a FACS buffer, and added to the samples at 100 μl/sample, which were incubated at 4° C. for 30 minutes. The samples were filled with a FACS buffer up to 200 μl, and then centrifuged at 1,200 rpm for 5 minutes, to remove the resulting supernatant. The fixation buffer (300 μl) was added to resuspend the cells. The cells expressing GFP were selected in the FACS LSR-Fortessa device, and the expression of CEACAM members were evaluated respectively using the antibody specific to each CEACAM member (Table 3). Also, the binding of anti-CEACAM1 antibodies was evaluated by PE fluorescence channel and analyzed using the FlowJo software.
For orientation: A flow cytometer gives signals particle by particle.

In assay [3] the target is T3, human CEACAM1 expressed on the cell surface (CEACAM1-Jurkat T cells); HEK293 cells transfected with human … (human, UniProt P13688 35-526).
T3 construct: whole, on cells; also called CCM1
T3 sequence (looked up): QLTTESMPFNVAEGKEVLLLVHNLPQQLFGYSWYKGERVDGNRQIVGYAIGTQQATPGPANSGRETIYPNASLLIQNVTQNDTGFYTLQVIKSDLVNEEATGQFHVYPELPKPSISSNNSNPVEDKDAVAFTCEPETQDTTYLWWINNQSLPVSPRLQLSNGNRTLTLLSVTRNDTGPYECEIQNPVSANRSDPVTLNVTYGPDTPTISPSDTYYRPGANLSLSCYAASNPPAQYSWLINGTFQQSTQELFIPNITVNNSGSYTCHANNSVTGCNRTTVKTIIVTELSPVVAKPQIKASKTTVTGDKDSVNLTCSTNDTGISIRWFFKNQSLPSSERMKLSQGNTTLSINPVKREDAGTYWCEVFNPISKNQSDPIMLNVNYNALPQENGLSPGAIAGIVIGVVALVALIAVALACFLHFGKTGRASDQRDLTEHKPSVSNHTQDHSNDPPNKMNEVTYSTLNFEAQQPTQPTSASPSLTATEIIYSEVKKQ
The assay can be described thus: flow cytometry on CEACAM1-Jurkat T cells; maximal MFI told of the 'other clones' as a group. On the procedure:
(§1) The CEACAM1-Jurkat T cells prepared above were treated with Fc block solution and incubated for 15 minutes. […] Herein, it is noted that the cell numbers were adjusted to 1×10⁵. The cells incubated with the antibodies were repeatedly subjected to the washing procedure of resuspending the cells in a FACS buffer and centrifuging the solution at 1,500 rpm.
(§2) PE-conjugated goat anti-human F(ab)₂; (Sigma; Cat. No. P8047)) was diluted in the FACS buffer at a volume ratio of 1:200, and then added to the cells at 100 μl/well. Cells were resuspended well and incubated at 4° C. for 30 minutes in a dark condition.
(§3) The cells incubated with the fixation buffer were repeatedly subjected to the washing procedure of resuspending the cells in a FACS buffer, centrifuging the solution at 1,500 rpm, and discarding the supernatant. The washed cells were resuspended in 200 μl of a FACS buffer, and the mean fluorescence intensities (MFIs) of the PE-labeled cells were monitored by a FACS LSR-Fortessa. All FACS analyses were conducted using the FlowJo software.

Assay [4] has as its target T3, human CEACAM1 expressed on the cell …. The assay can be described thus: flow cytometry on CEACAM1-Jurkat T cells, antibody at 0.2 µg/ml. How it is done: as §1, §2, §3
Assay [5] has the same target. In words: flow cytometry on CEACAM1-Jurkat T cells; reference: the other clones (MFI 8,000). How it is done:
as §1, §2, §3

B1: C25 (antibody, human IgG4 S228P, lambda, V domains shown)
VH: EVQLLESGGGLVQPGGSLRLSCAASGFTFSNYAMSWVRQAPGKGLEWVSVISHGGGSIYYADSVKGRLTISRDNSKNTLYLQMNSLRAEDTAVYYCARDPTKGYAPTFDYWGQGTLVTVSS
VL: QSVLTQPPSASGTPGQRVTISCSGSSSNIGNNYVSWYQQLPGTAPKLLIYADSKRPSGVPDRFSGSKSGTSASLAISGLRSEDEADYYCGAWDASLNGYVFGGGTKLTVLG
notes: Made in ExpiHEK293F cells, protein A purified. huIgG4 is the isotype control and anti-huIgG4 the detection reagent; the isotype is not otherwise stated; also called anti-CEACAM1 antibody C25
Broadly, the EC50 is the concentration at which the effect is half-maximal. In the case of B1, the concentration for a half-maximal effect (EC50) in assay [1] stood at 0.35 nM. For the same molecule, in assay [2], the binding result was “no binding”.

B2: 4R9 (antibody, human IgG4 S228P, lambda, V domains shown)
VH: EVQLLESGGGLVQPGGSLRLSCAASGFTFSNYAMSWVRQAPGKGLEWVSVISHGGGSIYYADSVKGRLTISRDNSKNTLYLQMNSLRAEDTAVYYCARDPTKGYAPTFDYWGQGTLVTVSS
VL: QSVLTQPPSASGTPGQRVTISCSGSSSNIGNNYVSWYQQLPGTAPKLLIYADSRRPSGVPDRFSGSKSGTSASLAISGLRSEDEADYYCGAWDLSLNGYVFGGGTKLTVLG
notes: also called C25-derived clone 4R9
Molecule B2 displayed an MFI in assay [3] of 8000. Further, the “percent of maximal binding level” value in assay [4] turned out to be 80%.

B3: 4R9_H2-2 (antibody, human IgG4 S228P, lambda, V domains shown)
VH: EVQLLESGGGLVQPGGSLRLSCAASGFTFSNYAMSWVRQAPGKGLEWVSVISHGGGSIYYADSVKGRLTISRDNSKNTLYLQMNSLRAEDTAVYYCARDPTKGYAPLFDYWGQGTLVTVSS
VL: QSVLTQPPSASGTPGQRVTISCSGSSSNIGNNYVSWYQQLPGTAPKLLIYADSRRPSGVPDRFSGSKSGTSASLAISGLRSEDEADYYCGAWDLSLNGYVFGGGTKLTVLG
notes: also called C25-derived clone 4R9_H2-2
As for B3, the MFI in assay [3] is 8000. Besides, the “percent of maximal binding level” value in assay [4] amounted to 80%.

B4: 4R26 (antibody, human IgG4 S228P, lambda, V domains shown)
VH: EVQLLESGGGLVQPGGSLRLSCAASGFTFSNYAMSWVRQAPGKGLEWVSVISHGGGSIYYADSVKGRLTISRDNSKNTLYLQMNSLRAEDTAVYYCARDPTKGYAPTFDYWGQGTLVTVSS
VL: QSVLTQPPSASGTPGQRVTISCSGSSSNIGNNYVSWYQQLPGTAPKLLIYADSKRLSGVPDRFSGSKSGTSASLAISGLRSEDEADYYCGAWDGRLNGYVFGGGTKLTVLG
notes: also called C25-derived clone 4R26
Consider B4, for which, in assay [3], the MFI amounted to 8000. Moreover, in assay [4], the “percent of maximal binding level” value amounted to 80%.

B5: 4R9_H4-n20 (antibody, human IgG4 S228P, lambda, V domains shown)
VH: EVQLLESGGGLVQPGGSLRLSCAASGFNFSNYAMSWVRQAPGKGLEWVSVISHGGGSIYYADSVKGRLTISRDNSKNTLYLQMNSLRAEDTAVYYCARDPTKGYAPTFDYWGQGTLVTVSS
VL: QSVLTQPPSASGTPGQRVTISCSGSSSNIGNNYVSWYQQLPGTAPKLLIYADSRRPSGVPDRFSGSKSGTSASLAISGLRSEDEADYYCGAWDLSLNGYVFGGGTKLTVLG
notes: also called C25-derived clone 4R9_H4-n20
Turning to B5, in assay [5], the “fold MFI against the other clones” value stood at 1.5 times.
